From the supplement of paper PMC11246515
± gives the standard deviation of the averaged measurements.

Experiment: total protein half-life in vivo (active degradation + dilution); higher = more stable protein
[1] = E. coli NCM3722 delta-clpP delta-lon delta-hslV, growth: N-lim chemostat, doubling time 6 h
[2] = E. coli NCM3722 delta-clpP, growth: N-lim chemostat, doubling time 6 h
[3] = E. coli NCM3722 delta-hslV, growth: N-lim chemostat, doubling time 6 h
[4] = E. coli NCM3722 delta-lon, growth: N-lim chemostat, doubling time 6 h
[5] = E. coli NCM3722 delta-smpB, growth: N-lim chemostat, doubling time 6 h
[6] = wild type E. coli NCM3722, growth: C-lim chemostat, doubling time 3 h
[7] = wild type E. coli NCM3722, growth: C-lim chemostat, doubling time 6 h
[8] = wild type E. coli NCM3722, growth: C-lim chemostat, doubling time 12 h
[9] = wild type E. coli NCM3722, growth: N-lim chemostat, doubling time 6 h
[10] = wild type E. coli NCM3722, growth: N-lim chemostat, doubling time 12 h
[11] = wild type E. coli NCM3722, growth: P-lim chemostat, doubling time 6 h
[12] = wild type E. coli NCM3722, growth: P-lim chemostat, doubling time 12 h

## MPHSDELDAGNVLAVENLNIAFMQDQQKIAAVRNLSFSLQRGETLAIVGESGSGKSVTALALMRLLEQAGGLVQCDKMLLQRRSREVIELSEQNAAQMRHVRGADMAMIFQEPMTSLNPVFTVGEQIAESIRLHQNASREEAMVEAKRMLDQVRIPEAQTILSRYPHQLSGGMRQRVMIAMALSCRPAVLIADEPTTALDVTIQAQILQLIKVLQKEMSMGVIFITHDMGVVAEIADRVLVMYQGEAVETGTVEQIFHAPQHPYTRALLAAVPQLGAMKGLDYPRRFPLISLEHPAKQAPPIEQKTVVDGEPVLRVRNLVTRFPLRSGLLNRVTREVHAVEKVSFDLWPGETLSLVGESGSGKSTTGRALLRLVESQGGEIIFNGQRIDTLSPGKLQALRRDIQFIFQDPYASLDPRQTIGDSIIEPLRVHGLLPGKDAAARVAWLLERVGLLPEHAWRYPHEFSGGQRQRICIARALALNPKVIIADEAVSALDVSIRGQIINLLLDLQRDFGIAYLFISHDMAVVERISHRVAVMYLGQIVEIGPRRAVFENPQHPYTRKLLAAVPVAEPSRQRPQRVLLSDDLPSNIHLRGEEVAAVSLQCVGPGHYVAQPQSEYAFMRR
[1]
  total protein half-life in vivo: 5.29 ± 0.17 h
[2]
  total protein half-life in vivo: 3.52 ± 0.092 h
[3]
  total protein half-life in vivo: 4 ± 0.11 h
[4]
  total protein half-life in vivo: 4.37 ± 0.63 h
[5]
  total protein half-life in vivo: 3.88 ± 0.28 h
[6]
  total protein half-life in vivo: 2.37 ± 0.21 h
[7]
  total protein half-life in vivo: 3.9527 ± 0.00027 h
[8]
  total protein half-life in vivo: 6.1 ± 0.44 h
[9]
  total protein half-life in vivo: 3.6 ± 0.015 h
[10]
  total protein half-life in vivo: 7.19 ± 1.5 h
[11]
  total protein half-life in vivo: 4.059 ± 0.034 h
[12]
  total protein half-life in vivo: 6.87 ± 0.34 h

## MPHSLFSTDTDLTAENLLRLPAEFGCPVWVYDAQIIRRQIAALKQFDVVRFAQKACSNIHILRLMREQGVKVDSVSLGEIERALAAGYNPQTHPDDIVFTADVIDQATLERVSELQIPVNAGSVDMLDQLGQVSPGHRVWLRVNPGFGHGHSQKTNTGGENSKHGIWYTDLPAALDVIQRHHLQLVGIHMHIGSGVDYAHLEQVCGAMVRQVIEFGQDLQAISAGGGLSVPYQQGEEAVDTEHYYGLWNAAREQIARHLGHPVKLEIEPGRFLVAQSGVLITQVRSVKQMGSRHFVLVDAGFNDLMRPAMYGSYHHISALAADGRSLEHAPTVETVVAGPLCESGDVFTQQEGGNVETRALPEVKAGDYLVLHDTGAYGASMSSNYNSRPLLPEVLFDNGQARLIRRRQTIEELLALELL
[1]
  total protein half-life in vivo: 3.43 ± 0.39 h
[2]
  total protein half-life in vivo: 2.81 ± 0.36 h
[3]
  total protein half-life in vivo: 2.41 ± 0.37 h
[5]
  total protein half-life in vivo: 2.06 ± 0.69 h
[6]
  total protein half-life in vivo: 2.91 ± 0.14 h
[7]
  total protein half-life in vivo: 4.76 ± 0.92 h
[8]
  total protein half-life in vivo: 8.09 ± 0.86 h
[9]
  total protein half-life in vivo: 2.53 ± 0.12 h
[10]
  total protein half-life in vivo: 3.6 ± 0.33 h
[11]
  total protein half-life in vivo: 5.29 ± 0.3 h
[12]
  total protein half-life in vivo: 9.66 ± 0.16 h

## MPHSYDYDAIVIGSGPGGEGAAMGLVKQGARVAVIERYQNVGGGCTHWGTIPSKALRHAVSRIIEFNQNPLYSDHSRLLRSSFADILNHADNVINQQTRMRQGFYERNHCEILQGNARFVDEHTLALDCPDGSVETLTAEKFVIACGSRPYHPTDVDFTHPRIYDSDSILSMHHEPRHVLIYGAGVIGCEYASIFRGMDVKVDLINTRDRLLAFLDQEMSDSLSYHFWNSGVVIRHNEEYEKIEGCDDGVIMHLKSGKKLKADCLLYANGRTGNTDSLALQNIGLETDSRGQLKVNSMYQTAQPHVYAVGDVIGYPSLASAAYDQGRIAAQALVKGEATAHLIEDIPTGIYTIPEISSVGKTEQQLTAMKVPYEVGRAQFKHLARAQIVGMNVGTLKILFHRETKEILGIHCFGERAAEIIHIGQAIMEQKGGGNTIEYFVNTTFNYPTMAEAYRVAALNGLNRLF
[1]
  total protein half-life in vivo: 4.47 ± 0.55 h
[2]
  total protein half-life in vivo: 3.95 ± 0.2 h
[3]
  total protein half-life in vivo: 4.17 ± 0.28 h
[4]
  total protein half-life in vivo: 3.85 ± 0.34 h
[5]
  total protein half-life in vivo: 4.01 ± 0.21 h
[6]
  total protein half-life in vivo: 2.74 ± 0.36 h
[7]
  total protein half-life in vivo: 6.09 ± 0.52 h
[8]
  total protein half-life in vivo: 10.5 ± 0.61 h
[9]
  total protein half-life in vivo: 4.46 ± 0.093 h
[10]
  total protein half-life in vivo: 6.87 ± 0.64 h
[11]
  total protein half-life in vivo: 6.15 ± 0.82 h
[12]
  total protein half-life in vivo: 12.2 ± 0.42 h

## MPIHDKSPRPQEFAAVDLGSNSFHMVIARVVDGAMQIIGRLKQRVHLADGLGPDNMLSEEAMTRGLNCLSLFAERLQGFSPASVCIVGTHTLRQALNATDFLKRAEKVIPYPIEIISGNEEARLIFMGVEHTQPEKGRKLVIDIGGGSTELVIGENFEPILVESRRMGCVSFAQLYFPGGVINKENFQRARMAAAQKLETLTWQFRIQGWNVAMGASGTIKAAHEVLMEMGEKDGIITPERLEKLVKEVLRHRNFASLSLPGLSEERKTVFVPGLAILCGVFDALAIRELRLSDGALREGVLYEMEGRFRHQDVRSRTASSLANQYHIDSEQARRVLDTTMQMYEQWREQQPKLAHPQLEALLRWAAMLHEVGLNINHSGLHRHSAYILQNSDLPGFNQEQQLMMATLVRYHRKAIKLDDLPRFTLFKKKQFLPLIQLLRLGVLLNNQRQATTTPPTLTLITDDSHWTLRFPHDWFSQNALVLLDLEKEQEYWEGVAGWRLKIEEESTPEIAA [P0AFL6]
[1]
  total protein half-life in vivo: 5.76 ± 0.2 h
[2]
  total protein half-life in vivo: 5.22 ± 0.12 h
[3]
  total protein half-life in vivo: 3.78 ± 0.22 h
[4]
  total protein half-life in vivo: 3.95 ± 0.21 h
[5]
  total protein half-life in vivo: 3.68 ± 0.057 h
[6]
  total protein half-life in vivo: 2.45 ± 0.086 h
[7]
  total protein half-life in vivo: 4.69 ± 0.06 h
[8]
  total protein half-life in vivo: 6.58 ± 0.48 h
[9]
  total protein half-life in vivo: 3.83 ± 0.3 h
[10]
  total protein half-life in vivo: 5.86 ± 0.01 h
[11]
  total protein half-life in vivo: 3.96 ± 0.56 h
[12]
  total protein half-life in vivo: 6.77 ± 0.37 h

## MPIQVLPPQLANQIAAGEVVERPASVVKELVENSLDAGATRIDIDIERGGAKLIRIRDNGCGIKKDELALALARHATSKIASLDDLEAIISLGFRGEALASISSVSRLTLTSRTAEQQEAWQAYAEGRDMNVTVKPAAHPVGTTLEVLDLFYNTPARRKFLRTEKTEFNHIDEIIRRIALARFDVTINLSHNGKIVRQYRAVPEGGQKERRLGAICGTAFLEQALAIEWQHGDLTLRGWVADPNHTTPALAEIQYCYVNGRMMRDRLINHAIRQACEDKLGADQQPAFVLYLEIDPHQVDVNVHPAKHEVRFHQSRLVHDFIYQGVLSVLQQQLETPLPLDDEPQPAPRSIPENRVAAGRNHFAEPAAREPVAPRYTPAPASGSRPAAPWPNAQPGYQKQQGEVYRQLLQTPAPMQKLKAPEPQEPALAANSQSFGRVLTIVHSDCALLERDGNISLLSLPVAERWLRQAQLTPGEAPVCAQPLLIPLRLKVSAEEKSALEKAQSALAELGIDFQSDAQHVTIRAVPLPLRQQNLQILIPELIGYLAKQSVFEPGNIAQWIARNLMSEHAQWSMAQAITLLADVERLCPQLVKTPPGGLLQSVDLHPAIKALKDE
[1]
  total protein half-life in vivo: 5.64 ± 0.16 h
[2]
  total protein half-life in vivo: 5.376 ± 0.017 h
[3]
  total protein half-life in vivo: 4.58 ± 0.16 h
[4]
  total protein half-life in vivo: 5.29 ± 0.063 h
[5]
  total protein half-life in vivo: 4.59 ± 0.048 h
[6]
  total protein half-life in vivo: 3.002 ± 0.009 h
[7]
  total protein half-life in vivo: 5.614 ± 0.0069 h
[8]
  total protein half-life in vivo: 9.34 ± 0.55 h
[9]
  total protein half-life in vivo: 4.635 ± 0.043 h
[10]
  total protein half-life in vivo: 8.197 ± 0.054 h
[11]
  total protein half-life in vivo: 5.43 ± 0.11 h
[12]
  total protein half-life in vivo: 10.2 ± 0.69 h

## MPIYQIDGLTPVVPEESFVHPTAVLIGDVILGKGVYVGPNASLRGDFGRIVVKDGANIQDNCVMHGFPEQDTVVGEDGHIGHSAILHGCIIRRNALVGMNAVVMDGAVIGENSIVGASAFVKAKAEMPANYLIVGSPAKAIRELSEQELAWKKQGTHEYQVLVTRCKQTLHQVEPLREIEPGRKRLVFDENLRPKQ
[1]
  total protein half-life in vivo: 5.05 ± 0.96 h
[2]
  total protein half-life in vivo: 4.12 ± 0.18 h
[3]
  total protein half-life in vivo: 4.15 ± 0.16 h
[4]
  total protein half-life in vivo: 5.43 ± 0.8 h
[5]
  total protein half-life in vivo: 3.9 ± 0.21 h
[6]
  total protein half-life in vivo: 3.49 ± 0.39 h
[8]
  total protein half-life in vivo: 11.6 ± 2.7 h
[9]
  total protein half-life in vivo: 4.19 ± 0.87 h
[10]
  total protein half-life in vivo: 6.81 h
[11]
  total protein half-life in vivo: 5.81 ± 0.34 h
[12]
  total protein half-life in vivo: 12.9 ± 0.92 h
